Reference: IntAct's records for PubMed 21134644

Experiments:
itb1_human ITGB1 = itb1_human ITGB1 (UniProt P05556)
itb1_human ITGB1, sequence (P05556 whole entry): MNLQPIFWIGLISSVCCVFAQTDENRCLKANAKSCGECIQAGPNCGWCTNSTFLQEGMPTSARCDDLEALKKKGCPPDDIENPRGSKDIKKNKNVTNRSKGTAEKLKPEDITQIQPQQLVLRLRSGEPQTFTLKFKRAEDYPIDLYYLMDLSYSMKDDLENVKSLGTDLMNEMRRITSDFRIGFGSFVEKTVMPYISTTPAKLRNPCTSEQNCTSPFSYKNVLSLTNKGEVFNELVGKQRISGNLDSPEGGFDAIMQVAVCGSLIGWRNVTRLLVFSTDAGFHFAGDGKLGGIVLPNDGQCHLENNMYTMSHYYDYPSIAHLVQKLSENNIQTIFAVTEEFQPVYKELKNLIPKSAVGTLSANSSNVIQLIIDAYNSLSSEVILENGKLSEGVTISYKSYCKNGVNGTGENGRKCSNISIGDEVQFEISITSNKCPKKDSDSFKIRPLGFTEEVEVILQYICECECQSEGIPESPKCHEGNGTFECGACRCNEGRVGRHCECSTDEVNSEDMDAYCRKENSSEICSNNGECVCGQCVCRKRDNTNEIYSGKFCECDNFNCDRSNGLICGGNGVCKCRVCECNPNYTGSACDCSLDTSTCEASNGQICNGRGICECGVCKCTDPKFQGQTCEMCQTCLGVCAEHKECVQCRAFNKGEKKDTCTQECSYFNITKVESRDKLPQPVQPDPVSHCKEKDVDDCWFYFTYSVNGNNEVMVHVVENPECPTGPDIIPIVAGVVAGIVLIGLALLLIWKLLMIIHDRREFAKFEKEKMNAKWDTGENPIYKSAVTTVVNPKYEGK

ITGB1, P05556-5, sequence (P05556 other isoform, or with tags, fused parts or gaps): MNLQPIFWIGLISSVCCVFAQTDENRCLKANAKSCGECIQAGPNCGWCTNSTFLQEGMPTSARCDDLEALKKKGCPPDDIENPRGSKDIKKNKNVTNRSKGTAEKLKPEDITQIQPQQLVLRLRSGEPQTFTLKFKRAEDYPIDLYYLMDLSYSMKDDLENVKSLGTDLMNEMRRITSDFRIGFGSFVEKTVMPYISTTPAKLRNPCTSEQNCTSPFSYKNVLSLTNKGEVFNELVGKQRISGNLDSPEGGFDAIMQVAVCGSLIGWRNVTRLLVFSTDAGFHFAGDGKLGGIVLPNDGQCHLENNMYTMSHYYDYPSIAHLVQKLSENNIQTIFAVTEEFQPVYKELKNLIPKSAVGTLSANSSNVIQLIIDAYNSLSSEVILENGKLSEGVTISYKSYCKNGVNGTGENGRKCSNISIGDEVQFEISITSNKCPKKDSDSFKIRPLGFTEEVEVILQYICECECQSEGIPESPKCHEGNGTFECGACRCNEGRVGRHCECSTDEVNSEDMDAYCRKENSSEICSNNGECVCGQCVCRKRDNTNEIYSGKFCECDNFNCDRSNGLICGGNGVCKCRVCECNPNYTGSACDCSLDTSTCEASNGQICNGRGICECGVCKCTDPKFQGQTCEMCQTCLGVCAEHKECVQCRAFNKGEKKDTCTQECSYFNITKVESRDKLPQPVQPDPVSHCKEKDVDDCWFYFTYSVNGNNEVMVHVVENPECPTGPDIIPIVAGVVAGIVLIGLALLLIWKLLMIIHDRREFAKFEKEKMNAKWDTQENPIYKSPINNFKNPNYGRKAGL

- effect of a mutation on the interaction (ITGB1, P05556-5): decreasing interaction
- effect of a mutation on the interaction (itb1_human ITGB1): disrupting interaction
Substance: Talin-2 (Mus musculus), Q71LX4 Y376A
